# Results as given in patent US20210002624.
# B1: Desialylated wild-type Factor VII (dWT VIIa) (protein)
# chain 1: ANAFLEELRPGSLERECKEEQCSFEEAREIFKDAERTKLFWISYSDGDQCASSPCQNGGSCKDQLQSYICFCLPAFEGRNCETHKDDQLICVNENGGCEQYCSDHTGTKRSCRCHEGYSLLADGVSCTPTVEYPCGKIPILEKRNASKPQGR
# chain 2: IVGGKVCPKGECPWQVLLLVNGAQLCGGTLINTIWVVSAAHCFDKIKNWRNLIAVLGEHDLSEHDGDEQSRRVAQVIIPSTYVPGTTNHDIALLRLHQPVVLTDHVVPLCLPERTFSERTLAFVRFSLVSGWGQLLDRGATALELMVLNVPRLMTQDCLQQSRKVGDSPNITEYMFCAGYSDGSKDSCKGDSGGPHATHYRGTWYLTGIVSWGQGCATVGHFGVYTRVSQYIEWLQKLMRSEPRPGVLLRAPFP
# Molecular target: Factor X, P00742
# Sequence (P00742 whole entry, looked up): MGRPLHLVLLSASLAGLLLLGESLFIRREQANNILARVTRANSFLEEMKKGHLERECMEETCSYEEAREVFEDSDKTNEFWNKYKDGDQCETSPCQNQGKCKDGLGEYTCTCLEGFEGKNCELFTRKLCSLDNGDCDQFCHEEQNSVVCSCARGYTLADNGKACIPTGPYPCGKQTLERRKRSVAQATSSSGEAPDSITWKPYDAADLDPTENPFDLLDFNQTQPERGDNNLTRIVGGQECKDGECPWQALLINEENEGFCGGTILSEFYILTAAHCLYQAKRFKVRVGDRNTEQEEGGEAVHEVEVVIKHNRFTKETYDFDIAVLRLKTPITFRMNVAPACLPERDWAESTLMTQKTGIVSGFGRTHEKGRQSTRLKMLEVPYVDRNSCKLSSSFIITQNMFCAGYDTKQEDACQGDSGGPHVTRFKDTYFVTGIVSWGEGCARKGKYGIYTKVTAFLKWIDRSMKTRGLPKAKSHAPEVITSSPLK
protein,measurement,value
B1,"activation of Factor X (Michaelis Menten kinetics; Factor X titrated in the presence of sTF-Factor VII complexes, 0.5 nM Factor VII, 125 nM sTF), relative to wild-type Factor VII (F7)",approximately 2-fold
